These results are taken from US20170246255.

One series concerns the target T1, GLP-1 (3DMA).
T1 chain: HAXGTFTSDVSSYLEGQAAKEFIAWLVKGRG

The next series concerns the target T2, GLP-1 (7-37).
T2 chain: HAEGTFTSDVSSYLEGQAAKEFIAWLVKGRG

In a further series the target is T3, GLP-1 (BM).
T3 chain: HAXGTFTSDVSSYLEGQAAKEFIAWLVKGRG

For series [1], the target named is T4, TLE-modified GLP-1 (7-37) analog.
T4 chain: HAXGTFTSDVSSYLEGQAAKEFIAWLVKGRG

B1: human DPP IV (protein)
chain: SRKTYTLTDYLKNTYRLKLYSLRWISDHEYLYKQENNILVFNAEYGNSSVFLENSTFDEFGHSINDYSISPDGQFILLEYNYVKQWRHSYTASYDIYDLNKRQLITEERIPNNTQWVTWSPVGHKLAYVWNNDIYVKIEPNLPSYRITWTGKEDIIYNGITDWVYEEEVFSAYSALWWSPNGTFLAYAQFNDTEVPLIEYSFYSDESLQYPKTVRVPYPKAGAVNPTVKFFVVNTDSLSSVTNATSIQITAPASMLIGDHYLCDVTWATQERISLQWLRRIQNYSVMDICDYDESSGRWNCLVARQHIEMSTTGWVGRFRPSEPHFTLDGNSFYKIISNEEGYRHICYFQIDKKDCTFITKGTWEVIGIEALTSDYLYYISNEYKGMPGGRNLYKIQLSDYTKVTCLSCELNPERCQYYSVSFSKEAKYYQLRCSGPGLPLYTLHSSVNDKGLRVLEDNSALDKMLQNVQMPSKKLDFIILNETKFWYQMILPPHFDKSKKYPLLLDVYAGPCSQKADTVFRLNWATYLASTENIIVASFDGRGSGYQGDKIMHAINRRLGTFEVEDQIEAARQFSKMGFVDNKRIAIWGWSYGGYVTSMVLGSGSGVFKCGIAVAPVSRWEYYDSVYTERYMGLPTPEDNLDHYRNSTVMSRAENFKQVEYLLIHGTADDNVHFQQSAQISKALVDVGVDFQAMWYTDEDHGIASSTAHQHIYTHMSHFIKQCFSLP
In the case of B1, the “cleavage of the peptide by the enzyme, HPLC/MS” value was “both GLP-1 (3DMA) and GLP-1 (BM) were resistant to cleavage by DPP IV in comparison to native GLP-1” with GLP-1 (3DMA); “both GLP-1 (3DMA) and GLP-1 (BM) were resistant to cleavage by DPP IV in comparison to native GLP-1” in the series with GLP-1 (BM). Also, the “cleavage of the peptide by the enzyme, HPLC/MS after two hours” value with GLP-1 (7-37) is “treatment with DPP IV resulted in a time dependent degradation of GLP-1”; in series [1], “TLE-modified GLP-1 is resistant to degradation by DPP IV”.
